Measured values taken from publication PMC6181439 (2018).

B1: scPOM2 (scFv, V domains shown)
VH: VKLQESGGEVVRPGTSVKVSCKASGYAFTNYLIEWVKQRPGQGLEWIGVINPGSGDTNYNEKFKGKATLTADKSSSTAYMQLNSLTSDDSAVYFCARSGAAAPTYYAMDYWGQGVSVTVSS
VL: DIVMTQSHKFMSTSVGDRVSITCKASQVGTALAWYQQKPGQSPKLLIYWASTRHTGVPDRFTGSGSGTDFTLTISNVQSEDLSDYFCQQYSSYPTFGGGTKLEIK
B2: Full IgG POM2 monoclonal antibody (antibody, V domains shown)
VH: VKLQESGGEVVRPGTSVKVSCKASGYAFTNYLIEWVKQRPGQGLEWIGVINPGSGDTNYNEKFKGKATLTADKSSSTAYMQLNSLTSDDSAVYFCARSGAAAPTYYAMDYWGQGVSVTVSS
VL: DIVMTQSHKFMSTSVGDRVSITCKASQVGTALAWYQQKPGQSPKLLIYWASTRHTGVPDRFTGSGSGTDFTLTISNVQSEDLSDYFCQQYSSYPTFGGGTKLEIK

Legend:
[1] = biological target: T1, Recombinant mouse PrP full length (23-230) (mouse, UniProt P04925 23-230); test: SPR
T1 sequence (P04925 23-230): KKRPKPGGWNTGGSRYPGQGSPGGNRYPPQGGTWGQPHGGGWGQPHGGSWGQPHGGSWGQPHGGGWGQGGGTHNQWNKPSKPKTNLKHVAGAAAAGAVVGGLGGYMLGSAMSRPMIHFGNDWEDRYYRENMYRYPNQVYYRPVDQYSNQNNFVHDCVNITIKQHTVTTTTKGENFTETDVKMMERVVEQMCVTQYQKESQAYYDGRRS

[2] = biological target: T1, Recombinant mouse PrP full length …; test: SPR; remark: listed apart in the source

| Binder | koff [1] [s⁻¹] | Kd [2] [nM] |
| --- | --- | --- |
| B1 | 0.00036 | 23 |
| B2 | 9.5e-06 | 0.1 |
